Data as given in article PMC10439114.

Biological target: T1, CD155 with a C-terminal V5 epitope tag, on Raji cells (UniProt P15151)
T1 sequence: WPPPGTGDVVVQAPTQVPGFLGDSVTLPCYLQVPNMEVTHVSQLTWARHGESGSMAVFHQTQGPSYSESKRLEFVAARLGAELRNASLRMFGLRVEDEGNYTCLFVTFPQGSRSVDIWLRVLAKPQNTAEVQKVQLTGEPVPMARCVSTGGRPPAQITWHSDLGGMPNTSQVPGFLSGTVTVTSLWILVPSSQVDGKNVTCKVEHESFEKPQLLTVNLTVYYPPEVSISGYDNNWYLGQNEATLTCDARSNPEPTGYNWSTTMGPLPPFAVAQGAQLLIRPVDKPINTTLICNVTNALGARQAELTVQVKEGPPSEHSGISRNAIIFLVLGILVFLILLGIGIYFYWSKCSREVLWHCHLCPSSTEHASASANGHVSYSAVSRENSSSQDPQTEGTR

IL-2 release of Jurkat TIGIT-SNAP cells after 6 h with SEE-pulsed Raji-CD155 relative to Raji-CD111 co-cultures (ELISA): 37%
log2-fold decrease of IL-2 release of Jurkat TIGIT-SNAP cells with SEE-pulsed Raji-CD155 against Raji-CD111 (ELISA): 1.45 log2 fold
B1: TIGIT-SNAP (wild-type TIGIT with a C-terminal SNAP-tag, on Jurkat cells) (receptor)
chain: MMTGTIETTGNISAEKGGSIILQCHLSSTTAQVTQVNWEQQDQLLAICNADLGWHISPSFKDRVAPGPGLGLTLQSLTVNDTGEYFCIYHTYPDGTYTGRIFLEVLESSVAEHGARFQIPLLGAMAATLVVICTAVIVVVALTRKKKALRIHSVEGDLRRKSAGQEEWSPSAPSPPGSCVQAEAAPAGLCGEQRGEDCAELHDYFNVLSYRSLGNCSFFTETG
